According to paper doi:10.1101/2021.10.20.465166:

Tests used:
Experiment in all cases: EMSA
[1] = molecular target: C/EBPα p42 (full length) (UniProt P49715 1-358)
[2] = molecular target: C/EBPα bZIP domain (UniProt P49715 282-345)
[3] = molecular target: C/EBPα p30 (UniProt P49715-3 1-239)
Sequence of C/EBPα p30 (P49715 120-358): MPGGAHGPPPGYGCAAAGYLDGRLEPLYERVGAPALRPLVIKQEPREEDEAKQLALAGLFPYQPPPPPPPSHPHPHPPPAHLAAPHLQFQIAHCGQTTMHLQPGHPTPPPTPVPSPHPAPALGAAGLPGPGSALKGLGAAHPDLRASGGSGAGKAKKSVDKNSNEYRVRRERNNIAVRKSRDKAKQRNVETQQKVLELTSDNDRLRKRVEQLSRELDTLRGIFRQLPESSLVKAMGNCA

Sequence of C/EBPα p42 (full length) (P49715 whole entry, the tested form may be a part): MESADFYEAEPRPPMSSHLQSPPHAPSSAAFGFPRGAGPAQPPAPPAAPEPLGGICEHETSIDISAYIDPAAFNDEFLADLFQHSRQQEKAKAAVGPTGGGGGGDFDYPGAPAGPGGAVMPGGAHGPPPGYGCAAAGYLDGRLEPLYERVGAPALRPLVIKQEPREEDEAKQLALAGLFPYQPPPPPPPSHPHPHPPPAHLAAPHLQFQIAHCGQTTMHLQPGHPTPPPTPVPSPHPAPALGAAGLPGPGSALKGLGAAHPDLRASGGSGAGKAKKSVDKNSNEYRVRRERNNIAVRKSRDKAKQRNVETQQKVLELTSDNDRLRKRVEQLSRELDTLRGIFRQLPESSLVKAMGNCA
Sequence of C/EBPα bZIP domain (P49715 282-345): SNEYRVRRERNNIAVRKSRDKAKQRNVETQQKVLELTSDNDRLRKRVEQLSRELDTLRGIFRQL

## UUCCCACUCACCCAGCACCC (ssRNA) [CTBP1 intron 2 RNA (CTBP1i2)]
[1]
  binding result: binds
[2]
  binding result: no binding
[3]
  binding result: binds

## GGGACCCGGUUCCCACUCACCCAGC (structured_RNA) [CTBP1 intron 2 negative RNA (CTBP1i2N)]
[1]
  binding result: no binding
[3]
  binding result: no binding

## CCCCCACCCAGCCAGGCCAAC (ssRNA) [PU.1 intron 4 RNA (PU.1i4)]
[1]
  binding result: binds
[2]
  binding result: no binding
[3]
  binding result: binds
